We go through two substances from publication PMC3349753.

The target in this experiment is Myc-tagged full-length FGD4 (FYVE, RhoGEF and PH domain-containing 4) (human) (UniProt Q96M96).
Chain of UniProt Q96M96 (Q96M96 whole entry, the tested form may be a part): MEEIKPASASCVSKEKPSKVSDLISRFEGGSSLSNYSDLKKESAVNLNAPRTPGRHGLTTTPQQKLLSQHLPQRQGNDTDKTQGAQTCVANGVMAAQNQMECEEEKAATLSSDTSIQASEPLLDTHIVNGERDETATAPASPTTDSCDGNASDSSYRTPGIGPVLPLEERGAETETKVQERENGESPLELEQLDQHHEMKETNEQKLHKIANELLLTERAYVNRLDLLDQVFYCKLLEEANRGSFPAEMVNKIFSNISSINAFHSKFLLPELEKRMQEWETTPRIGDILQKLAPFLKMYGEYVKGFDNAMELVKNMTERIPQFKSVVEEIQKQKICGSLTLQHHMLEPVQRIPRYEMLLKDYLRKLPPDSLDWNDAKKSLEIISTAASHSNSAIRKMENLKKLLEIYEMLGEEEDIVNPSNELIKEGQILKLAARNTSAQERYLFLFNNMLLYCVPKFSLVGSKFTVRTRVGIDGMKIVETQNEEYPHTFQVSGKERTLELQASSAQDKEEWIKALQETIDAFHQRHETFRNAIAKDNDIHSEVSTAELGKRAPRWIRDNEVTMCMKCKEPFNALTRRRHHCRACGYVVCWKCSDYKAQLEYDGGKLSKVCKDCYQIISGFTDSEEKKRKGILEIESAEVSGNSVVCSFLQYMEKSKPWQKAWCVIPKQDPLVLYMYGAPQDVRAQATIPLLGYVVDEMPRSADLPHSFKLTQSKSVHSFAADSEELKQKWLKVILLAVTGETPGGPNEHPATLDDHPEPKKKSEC

As to “Flag-CD40CT chimera: the entire transmembrane region of LMP1 (aa 1–177) replaced with that of CD40 (aa 1–214) (from UniProt P25942 21-214; P03230 178-386)”, the level of active Cdc42 (GST-CBD pull-down from NPC-TW01 lysates) on co-expression of FGD4 with CD40CT, compared with expression of FGD4 alone: did not promote Cdc42 activation was 1.1 fold.

In the case of “Flag-tagged full-length latent membrane protein 1 (LMP1) (from UniProt P03230 1-386) (natural protein)”, the level of active Cdc42 (GST-CBD pull-down from NPC-TW01 lysates) on co-expression of Myc-FGD4 with LMP1, compared with expression of FGD4 alone was found to be 1.8 fold.
